Key:
Assay in all cases: cell-based or functional assay
[1] = molecular target: haemagglutinin of A/Victoria/3/75 (H3N2), on PR8 recombinant virus (Influenza A virus A/Victoria/3/75 (H3N2)), P03435
[2] = molecular target: haemagglutinin of A/England/195/09 (H1N1), on PR8 recombinant virus (Influenza A virus A/England/195/09 (H1N1))
[3] = molecular target: haemagglutinin of influenza virus A/Udorn/72 (H3N2) (Influenza A virus A/Udorn/72 H3N2)

WLVFFVIFYFFRRRKK (modifications not checked) [FP3 peptide (…)]
IC50 in plaque reduction assay [1]: 16 µM | IC50 of inhibition of infectivity (plaque reduction assay) [2]: 0.066 to 0.1 µM | IC50 in plaque reduction assay [3]: 16 µM
